The labels stand for the following.
B1: Hairpin Ribozyme (parent)
chain: GUCCUCUUUCACGUGCGCGUGAAAGAGAGAAGUGAACCAGAGAAACACACGUUGUGGUAUAUUACCUGGUA

Here are results for 167 variants from the RNAGym collection of RNA variant scans (doi:10.7554/elife.80360).

The variants in the series derive from B1. Briefly: self-cleavage, relative activity (ratio to wild type); higher = more cleavage; co-transcriptional.
With G17C A23U, the self-cleavage amounted to 0.572.

For G17C A23C, the self-cleavage was 0.603.

G17C A45U: the self-cleavage was determined as 0.12.

Turning to C18U C38U, the self-cleavage is 0.529.

Turning to G17A U33A, the self-cleavage was determined as 0.12.

G17A U33G: the self-cleavage was determined as 0.0712.

For the variant C18A A35C, the self-cleavage is 1.2.

Turning to G17A A35G, the self-cleavage turned out to be 1.2.

Regarding G17A A35C, the self-cleavage turned out to be 0.945.

In the case of G17A G51U, the self-cleavage was 1.06.

C18A A61G: the self-cleavage was 0.25.

Turning to C18A A61C, the self-cleavage came out at 0.132.

Regarding C18A A61U, the self-cleavage came out at 0.138.

For C18A A24G, the self-cleavage came out at 0.95.

On to C18A A22C, for which the self-cleavage worked out at 1.04.

Turning to C18A A22U, the self-cleavage was found to be 0.794.

As to G17A A61G, the self-cleavage came to 0.107.

In the case of G17A C50A, the self-cleavage is 0.21.

With G17C A35C, the self-cleavage was determined as 1.04.

In the case of G17C A35G, the self-cleavage stood at 0.801.

In the case of G17U G54A, the self-cleavage turned out to be 0.642.

For the variant G17U G54U, the self-cleavage is 0.579.

For G17C C48A, the self-cleavage was found to be 0.173.

Consider G17U U52A, for which the self-cleavage came to 1.21.

As for G17U U52G, the self-cleavage turned out to be 0.8.

As to C18U C50G, the self-cleavage amounted to 0.217.

Consider C18A U58A, for which the self-cleavage came to 0.577.

C18A U58G: the self-cleavage is 0.652.

For the variant G17A U62C, the self-cleavage was 0.166.

Turning to G17A U62G, the self-cleavage worked out at 0.0926.

Regarding C18G U70G, the self-cleavage was 0.537.

C18G A44G: the self-cleavage turned out to be 0.113.

Take C18U U58A: the self-cleavage is 0.657.

As to G17C A44C, the self-cleavage was found to be 0.136.

In the case of G17C A44G, the self-cleavage was 0.121.

For the variant C18U U53C, the self-cleavage was found to be 1.03.

On to C16U U20G, for which the self-cleavage turned out to be 1.01.

As for C18G G42A, the self-cleavage stood at 0.179.

As to C18G G42U, the self-cleavage is 0.279.

Turning to C18A C38U, the self-cleavage stood at 0.526.

For the variant C18A C38G, the self-cleavage was 0.213.

Regarding C18A A28G, the self-cleavage stood at 1.43.

Take C18A A28C: the self-cleavage amounted to 0.492.

In the case of C18U G34A, the self-cleavage is 1.3.

As for G17A A23C, the self-cleavage stood at 0.987.

Consider G17A A23U, for which the self-cleavage is 0.892.

As for C18A G51C, the self-cleavage worked out at 0.896.

With C18A G51U, the self-cleavage was 1.12.

Turning to G17A G69U, the self-cleavage was 0.203.

With C18G U62A, the self-cleavage was 0.2.

On to C18G U62C, for which the self-cleavage amounted to 0.2.

On to C18U G69A, for which the self-cleavage is 0.476.

For the variant C18G G32C, the self-cleavage was found to be 0.0857.

Turning to C18A G57U, the self-cleavage came out at 0.439.

Consider C18G G69U, for which the self-cleavage is 0.162.

Take C18U A36C: the self-cleavage is 0.65.

Consider C18U A36U, for which the self-cleavage came to 0.634.

For the variant C16U G51A, the self-cleavage was 1.06.

As for G17C U60A, the self-cleavage was found to be 0.582.

For G17U G40C, the self-cleavage was 0.18.

On to G17U G40A, for which the self-cleavage was 0.342.

For C18U A45U, the self-cleavage is 0.109.

For the variant C18U A45G, the self-cleavage amounted to 0.174.

Turning to G17A A26U, the self-cleavage was 0.768.

Take G17A U58C: the self-cleavage is 0.869.

With G17A U58G, the self-cleavage is 0.78.

With G17C G69C, the self-cleavage turned out to be 0.124.

C16U U60C: the self-cleavage stood at 1.26.

For the variant C18A G54U, the self-cleavage is 0.62.

G17C G25U: the self-cleavage turned out to be 0.505.

Regarding G17C G25A, the self-cleavage stood at 0.417.

Consider C18U A71U, for which the self-cleavage was 0.832.

Turning to C18A C65G, the self-cleavage turned out to be 0.091.

For C18G U33G, the self-cleavage is 0.123.

C18G U33C: the self-cleavage worked out at 0.164.

As for G17C A36U, the self-cleavage was 0.356.

Regarding G17A G54C, the self-cleavage amounted to 0.429.

Turning to G17A G54U, the self-cleavage came out at 0.667.

Take G17U U60C: the self-cleavage was 1.35.

Regarding G17A A22G, the self-cleavage turned out to be 1.12.

G17A A22C: the self-cleavage amounted to 0.866.

G17A A22U: the self-cleavage came to 0.892.

Turning to C18G A23C, the self-cleavage was found to be 0.746.

As for G17A G68U, the self-cleavage is 0.243.

Consider C18A G68A, for which the self-cleavage came out at 0.272.

Take G17U G42C: the self-cleavage amounted to 0.281.

For G17U G29C, the self-cleavage was 0.105.

As to G17C A28C, the self-cleavage was determined as 0.347.

Consider G17C A28U, for which the self-cleavage turned out to be 0.28.

G17C A28G: the self-cleavage was 0.957.

For C18U A35U, the self-cleavage is 0.802.

On to C18G G25C, for which the self-cleavage came out at 0.454.

Take C18G G25U: the self-cleavage worked out at 0.47.

Take C18G G21C: the self-cleavage was determined as 0.706.

As for C18G G21U, the self-cleavage amounted to 0.651.

On to C16U U62G, for which the self-cleavage came to 0.107.

In the case of C16U U62C, the self-cleavage stood at 0.384.

Take C18G G19A: the self-cleavage came to 0.907.

As for C18G G19U, the self-cleavage was determined as 0.88.

Regarding G17U A23G, the self-cleavage was found to be 0.632.

On to G17U A23C, for which the self-cleavage was found to be 0.898.

For G17C A49C, the self-cleavage turned out to be 0.146.

For C18A U67G, the self-cleavage is 0.329.

Take C18A U67A: the self-cleavage came to 0.191.

For G17C U63C, the self-cleavage was 0.276.

Take G17A G21U: the self-cleavage stood at 0.901.

Take G17C U67G: the self-cleavage is 0.161.

Regarding G17C A24C, the self-cleavage is 0.614.

With G17A C65G, the self-cleavage came out at 0.485.

On to G17A A30C, for which the self-cleavage was found to be 0.231.

As to C18G U55C, the self-cleavage was determined as 0.233.

As for C18G U55A, the self-cleavage is 0.145.

Consider C18G A49G, for which the self-cleavage was 0.344.

In the case of G17C U52A, the self-cleavage amounted to 0.816.

Regarding G17C U52G, the self-cleavage was found to be 0.821.

Regarding C18U A22U, the self-cleavage was determined as 1.1.

Regarding C18U A22G, the self-cleavage came to 0.784.

In the case of C18U A22C, the self-cleavage was 0.949.

Turning to G17C G32U, the self-cleavage stood at 0.0811.

In the case of G17C G32A, the self-cleavage stood at 0.131.

As to C18G A47G, the self-cleavage was determined as 0.198.

As to G17U A31G, the self-cleavage was 0.6.

Consider G17C C65U, for which the self-cleavage was 0.24.

As for G17C C65G, the self-cleavage came out at 0.339.

Regarding C18G A36C, the self-cleavage was 0.473.

With C18A A30U, the self-cleavage came out at 0.16.

Turning to G17A G57A, the self-cleavage is 0.228.

G17A G57U: the self-cleavage was 0.301.

C18U G42C: the self-cleavage stood at 0.416.

With C18U G42A, the self-cleavage is 0.167.

Consider C18G A26G, for which the self-cleavage was 0.828.

For the variant C16U G56A, the self-cleavage turned out to be 0.208.

G17A A44G: the self-cleavage stood at 0.233.

For the variant G17A A44C, the self-cleavage was 0.119.

As to C18U G54C, the self-cleavage stood at 0.543.

C18G G40C: the self-cleavage amounted to 0.0865.

As to C18G G40U, the self-cleavage amounted to 0.187.

Regarding C18A A47U, the self-cleavage was 0.181.

For G17C G54U, the self-cleavage was 0.417.

In the case of G17C A31C, the self-cleavage amounted to 0.172.

Take G17C A31U: the self-cleavage was 0.0868.

C18G A39U: the self-cleavage is 0.474.

For C18G A39G, the self-cleavage came out at 0.281.

C18G A39C: the self-cleavage stood at 0.587.

Take G17C G29C: the self-cleavage was found to be 0.113.

With C18A C50G, the self-cleavage worked out at 0.309.

On to G17U G57U, for which the self-cleavage is 0.264.

Consider G17U G57A, for which the self-cleavage turned out to be 0.201.

As to G17U G57C, the self-cleavage turned out to be 0.151.

As to C18U G56A, the self-cleavage is 0.135.

For the variant G17A C66G, the self-cleavage came out at 0.268.

Consider C18A A23G, for which the self-cleavage turned out to be 1.02.

With C18A G19U, the self-cleavage came to 0.923.

As to G17A G40C, the self-cleavage is 0.153.

For C18U C37A, the self-cleavage is 0.329.

As to C18U C37G, the self-cleavage worked out at 0.352.

Regarding G17C C46U, the self-cleavage stood at 0.113.

As for G17U U55G, the self-cleavage was 0.351.

For the variant G17A A31U, the self-cleavage came out at 0.105.

As to G17A A31G, the self-cleavage came out at 0.694.

As for C18A A36C, the self-cleavage came to 0.711.

In the case of C18U A26C, the self-cleavage came to 0.525.

G17U C18U: the self-cleavage amounted to 0.926.

With G17U C18G, the self-cleavage is 0.979.

With G17U C18A, the self-cleavage amounted to 0.966.

In the case of G17A U52A, the self-cleavage came to 0.912.

As for G17U A24U, the self-cleavage turned out to be 0.865.
